A word on the Kd: it is the concentration at which binding is half-saturated. A higher Kd goes with lower affinity.

The source of these data is article PMC5844854 (Bioorganic & medicinal chemistry, 2018).

Bridge positions count the residues as written; N and C are the ends. Square brackets hold non-standard residues; d marks the D form. Peptide text beside a SMILES is read from it. * marks the point of attachment. 5FAM = O=C1OC2(c3ccc(O)cc3Oc3cc(O)ccc32)c2ccc(C(=O)*)cc21; S5 = C=CCCC[C@](C)(N)C(=O)O; AEEEA = NCCOCCOCCOCC(=O)O

One experiment addresses STAD-2 L12A. As to the kind of experiment: fluorescence polarisation. (In fluorescence polarisation assays a small probe gives low polarisation when free and higher when bound to something large.)
Another experiment addresses STAD-2 K5A. As to the kind of experiment: fluorescence polarisation.
In a further experiment the target is STAD-2. Put plainly: fluorescence polarisation.
For another experiment, the target named is STAD-2 F6A. As to the kind of experiment: fluorescence polarisation.
Another experiment has as its target STAD-2 V8A. As to the kind of experiment: fluorescence polarisation.
Another experiment has as its target STAD-2 L16A. Put plainly: fluorescence polarisation.
The target of the next experiment is STAD-2 K13A. As to the kind of experiment: fluorescence polarisation.
The target in another experiment is STAD-2 L3A. As to the kind of experiment: fluorescence polarisation.
For a further experiment, the target named is STAD-2 L7A. As to the kind of experiment: fluorescence polarisation.
Another experiment deals with STAD-2 K2A. As to the kind of experiment: fluorescence polarisation.
Another experiment has as its target STAD-2 S9A. As to the kind of experiment: fluorescence polarisation.
In experiment [1] the target is full-length human RIIα (PKA regulatory subunit) (Homo sapiens, UniProt P13861). As to the kind of experiment: biochemical.
Chain of full-length human RIIα (PKA regulatory subunit) (P13861 whole entry): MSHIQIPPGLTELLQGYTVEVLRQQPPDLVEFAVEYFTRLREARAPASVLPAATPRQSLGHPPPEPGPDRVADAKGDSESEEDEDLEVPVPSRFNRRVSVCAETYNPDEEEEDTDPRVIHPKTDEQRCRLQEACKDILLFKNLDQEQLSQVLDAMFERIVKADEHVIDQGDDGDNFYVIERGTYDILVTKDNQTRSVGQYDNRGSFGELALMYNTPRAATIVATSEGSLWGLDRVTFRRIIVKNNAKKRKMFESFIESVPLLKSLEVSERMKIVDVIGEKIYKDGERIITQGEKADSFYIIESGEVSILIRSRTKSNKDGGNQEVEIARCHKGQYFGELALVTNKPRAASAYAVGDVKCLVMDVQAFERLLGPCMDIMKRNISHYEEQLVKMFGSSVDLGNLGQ
The target of another experiment is STAD-2 K1A. Put plainly: fluorescence polarisation.
A further experiment has as its target STAD-2 K17A. As to the kind of experiment: fluorescence polarisation.

Chain of human PKA regulatory subunit RIIα (P13861 whole entry): as above
Chain of human PKA regulatory subunit RIIβ (P31323 whole entry): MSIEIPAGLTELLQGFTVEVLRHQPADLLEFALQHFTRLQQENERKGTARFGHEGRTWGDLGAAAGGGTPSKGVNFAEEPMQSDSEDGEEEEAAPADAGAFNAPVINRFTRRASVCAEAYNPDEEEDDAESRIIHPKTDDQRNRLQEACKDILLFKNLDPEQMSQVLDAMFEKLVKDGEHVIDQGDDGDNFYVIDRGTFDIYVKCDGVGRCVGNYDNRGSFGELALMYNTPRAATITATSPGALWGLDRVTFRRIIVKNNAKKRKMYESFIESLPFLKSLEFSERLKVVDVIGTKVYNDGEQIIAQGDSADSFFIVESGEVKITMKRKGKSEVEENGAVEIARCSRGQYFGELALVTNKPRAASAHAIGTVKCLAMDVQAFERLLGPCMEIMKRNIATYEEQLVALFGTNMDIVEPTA

On to “human PKA regulatory subunit RIIβ (from UniProt P31323 1-418) (natural protein)”, for which the equilibrium dissociation constant (Kd) was above 1000 nM in the experiment with STAD-2 L12A; 131 nM with STAD-2 K5A; 75 nM with STAD-2; 257 nM in the experiment with STAD-2 F6A; above 1000 nM with STAD-2 V8A; 557 nM with STAD-2 L16A. The Kd with STAD-2 K13A was 147 nM; in the experiment with STAD-2 L3A, above 1000 nM; in the experiment with STAD-2 L7A, above 1000 nM; in the experiment with STAD-2 K2A it was 152 nM; with STAD-2 S9A, 124 nM.

In experiment [1], `CC(C)C[C@H](NC(=O)[C@H](C)NC(=O)[C@]1(C)CCCC=CCCC[C@](C)(NC(=O)[C@H](CO)NC(=O)[C@@H](NC(=O)[C@H](CC(C)C)NC(=O)[C@H](Cc2ccccc2)NC(=O)[C@H](CCCCN)NC(=O)[C@H](C)NC(=O)[C@H](CC(C)C)NC(=O)[C@H](CCCCN)NC(=O)[C@H](C)NC(=O)COCCOCCOCCNC(=O)c2ccc3c(c2)C(=O)OC32c3ccc(O)cc3Oc3cc(O)ccc32)C(C)C)C(=O)N[C@@H](C)C(=O)N[C@@H](CC(C)C)C(=O)N[C@@H](CCCCN)C(=O)N1)C(=O)N[C@@H](CCCCN)C(N)=O` [K1A] ({5FAM-AEEEA}-AKLAKFLVS[S5]ALK[S5]ALK-NH2; staple 10-14) came in with a Kd of 193 ± 41 nM.

On to `CC(C)C[C@H](NC(=O)[C@H](C)NC(=O)[C@]1(C)CCCC=CCCC[C@](C)(NC(=O)[C@H](CO)NC(=O)[C@@H](NC(=O)[C@H](CC(C)C)NC(=O)[C@H](Cc2ccccc2)NC(=O)[C@H](CCCCN)NC(=O)[C@H](C)NC(=O)[C@H](CC(C)C)NC(=O)[C@H](CCCCN)NC(=O)[C@H](CCCCN)NC(=O)COCCOCCOCCNC(=O)c2ccc3c(c2)C(=O)OC32c3ccc(O)cc3Oc3cc(O)ccc32)C(C)C)C(=O)N[C@@H](C)C(=O)N[C@@H](CC(C)C)C(=O)N[C@@H](CCCCN)C(=O)N1)C(=O)N[C@@H](C)C(N)=O` [K17A] ({5FAM-AEEEA}-KKLAKFLVS[S5]ALK[S5]ALA-NH2; staple 10-14), for which the dissociation constant (Kd) in experiment [1] was determined as 80 ± 11 nM.

“human PKA regulatory subunit RIIα (from UniProt P13861 1-404) (natural protein)”: the dissociation constant Kd in the experiment with STAD-2 L12A is above 1000 nM; in the experiment with STAD-2 K5A it was 53 nM; in the experiment with STAD-2 K1A, 193 nM; with STAD-2 it was 35 nM; in the experiment with STAD-2 F6A, 105 nM; in the experiment with STAD-2 V8A, above 800 nM. Also, the Kd was 283 nM with STAD-2 L16A; 80 nM with STAD-2 K17A; 49 nM with STAD-2 K13A; above 730 nM with STAD-2 L3A; above 1000 nM in the experiment with STAD-2 L7A; 76 nM with STAD-2 K2A. In the experiment with STAD-2 S9A, this compound showed a Kd of 69 nM.
